# Positions count from the first letter of the chain named. Numbers in names are those of the source.
# B1: 56E5VH2VL4 (antibody, human IgG1, kappa, N297A, V domains shown)
# VH: QVQLQESGPGLVKPSQTLSLTCTVSGGSITSDYWNWIRQHPGKGLEYMGYISYTGSTYYNPSLKSRVTITVDTSKNQFSLKLSSVTTADTAVYYCARYRDWDVRAMDYWGQGTTVTVSS
# VL: DIVMTQSPDSLAVSLGEKVTMNCKSSQSLLISGNQKNFLTWYQQKPGQPPKLLIYWASTRESGVPDRFSGSGSGTDFTLTISSLQAEDLAVYYCQNDFGFPFTFGQGTKVEIKR
# notes: humanized 56E5 antibody
# B2: humanized antibody 56E5-VH5VL4 (antibody, human IgG1, kappa, N297A, V domains shown)
# VH: B1 VH with K43N, G44K, V67I, T68S, V71R
# VL: B1 VL
# notes: Human IgG1(N297A)/kappa
# B3: 56E5VH3VL4 (antibody, human IgG1, kappa, N297A, V domains shown)
# VH: B1 VH with K43N, G44K
# VL: B1 VL
# notes: humanized 56E5 antibody
# B4: 56E5VH4VL4 (antibody, human IgG1, kappa, N297A, V domains shown)
# VH: B1 VH with K43N, G44K, V71R
# VL: B1 VL
# notes: humanized 56E5 antibody
# B5: mouse anti-PD-L1 monoclonal antibody 56E5 (antibody, mouse IgG1, V domains shown)
# VH: EVQLQESGPGLAKPSQTLSLTCSVTGYSITSDYWNWIRKFPGNKLEYMGYISYTGSTYYNPSLKSRISITRDTSKNQYYLQLNSVTTEDTATYYCARYRDWDVRAMDYWGQGTSVTVSS
# VL: DIVMTQSPSSLTVTAGEKVTMNCKSSQSLLISGNQKNFLTWYQQKPGQPPKLLIYWASTRESGVPDRFTGSGSGTDFTLTISSVQAEDLAVYYCQNDFGFPFTFGSGTKLEIK
# notes: Purified from hybridoma; also called Mouse 56E5
# B6: mouse anti-PD-L1 monoclonal antibody 3C2 (antibody, mouse IgG1, V domains shown)
# VH: QVQLNQSGPELMKAGTSVKISCKASGYSFTDYHVNWVKQRPGQGLEWIGWIFPGSGRTFYTDKFKGKATLTVDLSFTTAYIMLNSLTSEDSAVYFCATDYGTSGYGLVYWGQGTSVTVSS
# VL: DIQMTQSSSYLSVSLGGRVTISCKASDRINNWLAWYQQKPGNAPRLLISGATSLETGVPSRFSGSGSGKDYTLSITSLQTEDVAVYYCQQYWNIPFTFGSGTKLEIK
# notes: Purified from hybridoma; also called Mouse 3C2
# B7: 3C2VH3VL3 (antibody, human IgG1, kappa, N297A, V domains shown)
# VH: QVQLVQSGAEVKKPGASVKVSCKASGYTFTDYHVNWVKQRPGQGLEWIGWIFPGSGRTFYTDKFKGRVTLTVDTSTSTVYMELSSLTSEDTAVYYCATDYGTSGYGLVYWGQGTTVTVSS
# VL: DIQMTQSPSSLSASVGDRVTISCKASDRINNWLAWYQQKPGNAPRLLISGATSLETGVPSRFSGSGSGTDYTFTISSLQPEDIATYYCQQYWNIPFTFGQGTKVEIKR
# notes: humanized 3C2 antibody
# B8: 3C2VH2VL3 (antibody, human IgG1, kappa, N297A, V domains shown)
# VH: B7 VH with K38R, R40A
# VL: B7 VL
# notes: humanized 3C2 antibody
# B9: humanized antibody 3C2-VH4VL4 (antibody, human IgG1, kappa, N297A, V domains shown)
# VH: B7 VH with T28S, Y95F
# VL: B7 VL with T85V
# notes: Human IgG1(N297A)/kappa
# B10: 3C2VH5VL3 (antibody, human IgG1, kappa, N297A, V domains shown)
# VH: B7 VH with T28S, R67K, V68A, Y95F
# VL: B7 VL
# notes: humanized 3C2 antibody
# B11: 3C2VH3VL2 (antibody, human IgG1, kappa, N297A, V domains shown)
# VH: B7 VH
# VL: B7 VL with S22T, N42K
# notes: humanized 3C2 antibody
# B12: 3C2VH2VL2 (antibody, human IgG1, kappa, N297A, V domains shown)
# VH: B7 VH with K38R, R40A
# VL: B7 VL with S22T, N42K
# notes: humanized 3C2 antibody
# B13: 3C2VH5VL4 (antibody, human IgG1, kappa, N297A, V domains shown)
# VH: B7 VH with T28S, R67K, V68A, Y95F
# VL: B7 VL with T85V
# notes: humanized 3C2 antibody
# B14: 3C2VH3VL4 (antibody, human IgG1, kappa, N297A, V domains shown)
# VH: B7 VH
# VL: B7 VL with T85V
# notes: humanized 3C2 antibody
# B15: 3C2VH4VL2 (antibody, human IgG1, kappa, N297A, V domains shown)
# VH: B7 VH with T28S, Y95F
# VL: B7 VL with S22T, N42K
# notes: humanized 3C2 antibody
# B16: 3C2VH5VL2 (antibody, human IgG1, kappa, N297A, V domains shown)
# VH: B7 VH with T28S, R67K, V68A, Y95F
# VL: B7 VL with S22T, N42K
# notes: humanized 3C2 antibody
# B17: 3C2VH2VL4 (antibody, human IgG1, kappa, N297A, V domains shown)
# VH: B7 VH with K38R, R40A
# VL: B7 VL with T85V
# notes: humanized 3C2 antibody
# B18: 3C2VH4VL3 (antibody, human IgG1, kappa, N297A, V domains shown)
# VH: B7 VH with T28S, Y95F
# VL: B7 VL
# notes: humanized 3C2 antibody
# B19: humanized antibody 3C2-VH6VL5 (antibody, human IgG1, kappa, N297A, V domains shown)
# VH: B7 VH with K38R, R40A, L70M, T87R
# VL: B7 VL with S22T, N42K, R45K, Y71F, F73L
# notes: Human IgG1(N297A)/kappa
# Target: T1, monkey PD-L1 expressed on HEK293A cells (monkey (cynomolgus), UniProt Q9NZQ7 19-290 (human entry))
# T1 construct: Full-length cDNA expressed stably; also called HEK293A/monkey PD-L1 cells; HEK293A/monkey PD-L1
# T1 sequence (Q9NZQ7 other isoform, or with tags, fused parts or gaps limits assumed): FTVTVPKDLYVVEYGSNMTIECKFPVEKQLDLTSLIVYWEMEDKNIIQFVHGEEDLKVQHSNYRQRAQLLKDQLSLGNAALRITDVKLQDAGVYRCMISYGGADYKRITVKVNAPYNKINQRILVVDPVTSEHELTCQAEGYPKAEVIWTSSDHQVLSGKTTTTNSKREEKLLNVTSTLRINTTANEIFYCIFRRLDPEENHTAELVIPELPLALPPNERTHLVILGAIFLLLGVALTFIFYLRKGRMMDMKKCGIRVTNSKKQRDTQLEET
# Test: FACS on HEK293A/monkey PD-L1 cells, serially diluted antibody (protocol of Example 4)
row,binding result,Binder
1,binds,B1
2,binds,B2
3,binds,B3
4,binds,B4

# Target: T1, monkey PD-L1 expressed on HEK293A cells
# Test: FACS on HEK293A/monkey PD-L1 cells
# Procedure: (§1) To determine whether the anti-PD-L1 antibodies bound to human, monkey or mouse PD-L1s expressed on HEK293A cells, a cell-based binding assay was performed by FACS using the HEK293A cells stably overexpressing human, monkey and mouse PD-L1s respectively as generated in Example 1. Briefly, 10⁵ HEK293A cells in 100 μl culture medium were seeded onto each well of the 96-well plates, to which added 50 μl serially diluted anti-PD-L1 antibodies. After incubated at 4° C. for 1 hour, plates were washed 3 times with PBST. Then, APC coupled Goat Anti-Mouse IgG (Cat #:405308, BioLegend, US) diluted 500× was added to the plates. After incubation at 4° C. for 1 hour, the plates were washed with PBS for 3 times and then cell fluorescence was monitored using a FACS machine (BD).
row,EC50,Binder
1,0.499 nM,B5
2,1.25 nM,B6

# Target: T2, human PD-L1 expressed on HEK293A cells (human, UniProt Q9NZQ7 19-290)
# T2 construct: Full-length cDNA expressed stably; also called HEK293A/human PD-L1 cells; HEK293A/human PD-L1
# T2 sequence (Q9NZQ7 19-290 limits assumed): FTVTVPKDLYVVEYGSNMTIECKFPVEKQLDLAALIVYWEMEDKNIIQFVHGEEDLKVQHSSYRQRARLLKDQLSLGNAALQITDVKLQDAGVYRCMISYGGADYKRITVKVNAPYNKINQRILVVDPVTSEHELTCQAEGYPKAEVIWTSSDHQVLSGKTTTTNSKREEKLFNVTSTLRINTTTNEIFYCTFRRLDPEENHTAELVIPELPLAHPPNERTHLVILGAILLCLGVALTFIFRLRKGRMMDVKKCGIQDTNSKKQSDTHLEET
# Test: FACS on HEK293A/human PD-L1 cells
# Procedure: as §1
row,EC50,Binder
1,0.572 nM,B5
2,1.75 nM,B6

# Target: T3, mouse PD-L1 expressed on HEK293A cells (mouse, UniProt Q9EP73 19-290)
# T3 construct: Full-length cDNA expressed stably; also called HEK293A/mouse PD-L1 cells; HEK293A/mouse PD-L1
# T3 sequence (Q9EP73 19-290 limits assumed): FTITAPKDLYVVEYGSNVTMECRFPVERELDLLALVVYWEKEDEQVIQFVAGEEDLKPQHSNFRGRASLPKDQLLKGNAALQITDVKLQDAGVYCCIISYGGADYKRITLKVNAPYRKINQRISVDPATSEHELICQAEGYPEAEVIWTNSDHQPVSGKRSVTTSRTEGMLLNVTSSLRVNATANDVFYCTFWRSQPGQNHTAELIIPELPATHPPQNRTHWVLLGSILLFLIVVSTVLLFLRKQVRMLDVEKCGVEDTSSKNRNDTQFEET
# Test: FACS on HEK293A/mouse PD-L1 cells
# Procedure: as §1
row,binding result,Binder
1,no binding,B5
2,no binding,B6

# Target: T1, monkey PD-L1 expressed on HEK293A cells
# Test: FACS on HEK293A/monkey PD-L1 cells, serially diluted antibody (protocol of Example 4)
# Remark: another data set of the same source
row,binding result,Binder
1,binds,B7
2,binds,B8
3,binds,B9
4,binds,B10
5,binds,B11
6,binds,B12
7,binds,B13
8,binds,B14
9,binds,B15
10,binds,B16
11,binds,B17
12,binds,B18
13,binds,B19

# Target: T2, human PD-L1 expressed on HEK293A cells
# Test: FACS blocking assay: antibody titrated on HEK293A/human PD-L1 cells, then PD1-hFc (200 µg/ml) detected
# Procedure: Briefly, 10⁵ HEK293A/human PD-L1 cells in 100 μl culture medium were seeded onto each well of 96-well plates, to which added 50 μl serially diluted anti-PD-L1 antibodies. After incubated at 4° C. for 1 hour, the plates were washed 3 times with PBST. […] After incubation at 4° C. for 1 hour, the plates were washed with PBST for 3 times, and added with PE coupled Goat Anti-human IgG (Cat #:PAI-86078, Thermofisher, US) diluted 500×. After incubation at 4° C. for 1 hour, the plates were washed with PBST for 3 times and then cell fluorescence was monitored using a FACS machine (BD).
row,EC50,Binder
1,0.01 nM,B5
2,0.0147 nM,B6

# Target: T2, human PD-L1 expressed on HEK293A cells
# Test: FACS on HEK293A/human PD-L1 cells, serially diluted antibody (protocol of Example 4)
row,binding result,Binder
1,binds,B7
2,binds,B8
3,binds,B10
4,binds,B11
5,binds,B12
6,binds,B13
7,binds,B14
8,binds,B15
9,binds,B16
10,binds,B17
11,binds,B18

# Target: T4, human PD-L1 (ECD)-his (human, UniProt Q9NZQ7 19-238)
# T4 construct: Bought protein; it is not tied to the bought construct by a sentence of its own; also called recombinant human PD-L1(ECD)-his; Cat #:10084-H08H, Sino Biological; not shown: His tag
# T4 sequence (Q9NZQ7 19-238): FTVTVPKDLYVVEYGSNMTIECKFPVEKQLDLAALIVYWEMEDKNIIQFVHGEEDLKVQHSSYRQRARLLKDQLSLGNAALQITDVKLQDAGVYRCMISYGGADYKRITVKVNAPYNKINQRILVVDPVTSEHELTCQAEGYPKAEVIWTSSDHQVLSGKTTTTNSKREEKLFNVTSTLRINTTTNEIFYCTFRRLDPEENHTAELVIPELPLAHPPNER
# Test: SPR (BIAcore 8K), human PD-L1 (ECD)-his coupled to CM5 chip, antibody injected, 1:1 Langmuir model
# Procedure: (§2) These antibodies were also tested in SPR assays for their binding affinities to human and monkey PD-L1 with BIAcore™ 8K instrument (GE Life Sciences). Briefly, 100-200 response units (RU) of human PD-L1 (ECD)-his protein (Cat #:10084-H08H, Sino Biological, CN) or monkey PD-L1 (ECD)-his protein (Cat #:90251-008H, Sino Biological, CN) were coupled to CM5 biosensor chips (Cat #:BR-1005-30, GE Life Sciences, US), and the un-reacted groups were blocked with 1M ethanolamine Serially diluted antibodies at concentrations ranging from 0.3 μM to 10 μM were injected into the SPR running buffer (HBS-EP buffer, pH7.4, Cat #:BR-1006-69, GE Life Sciences, US) at 30 μL/minute. The binding affinities were calculated with the RUs of blank controls subtracted. The association rate (kₐ) and dissociation rate (kd) were calculated using the one-to-one Langmuir binding model (BIA Evaluation Software, GE Life Sciences), and the equilibrium dissociation constant KD was calculated as the kd/kₐ ratio.
row,Kd,Binder
1,0.518 nM,B2
2,0.307 nM,B9
3,0.433 nM,B19

# Target: T2, human PD-L1 expressed on HEK293A cells
# Test: FACS on cells, serially diluted antibody (protocol of Example 4); legend paragraph 38 gives panel A as HEK293A/human PD-L1 cells, but the title printed on the sheet reads HEK293A/monkey PDL1
row,binding result,Binder
1,binds,B1
2,binds,B3
3,binds,B4

# Target: T5, monkey PD-L1 (ECD)-his (monkey, UniProt Q9NZQ7 19-238 (human entry))
# T5 construct: Bought protein; also called Cat #:90251-C08H, Sino Biological; not shown: His tag
# T5 sequence (Q9NZQ7 other isoform, or with tags, fused parts or gaps): as the sequence (Q9NZQ7 19-238) above, with A33T, A34S, S62N, R68Q, Q82R, F173L, T185A, T192I, H215L counted along it
# Test: SPR (BIAcore 8K), monkey PD-L1 (ECD)-his coupled to CM5 chip, antibody injected, 1:1 Langmuir model
# Procedure: as §2
row,Kd,Binder
1,0.00807 nM,B2
2,0.245 nM,B9
3,0.369 nM,B19

# Reference: patent US20220298244A1 (BEIJING MABWORKS BIOTECH, published 2022)
